B1: RILP: Rab7 effector, retrograde motor adaptor, overexpressed GFP-tagged from plasmid (protein, UniProt Q96NA2 1-401, looked up)
Rab-interacting lysosomal …: MEPRRAAPGVPGWGSREAAGSASAAELVYHLAGALGTELQDLARRFGPEAAAGLVPLVVRALELLEQAAVGPAPDSLQVSAQPAEQELRRLREENERLRRELRAGPQEERALLRQLKEVTDRQRDELRAHNRDLRQRGQETEALQEQLQRLLLVNAELRHKLAAMQTQLRAAQDRERERQQPGEAATPQAKERARGQAGRPGHQHGQEPEWATAGAGAPGNPEDPAEAAQQLGRPSEAGQCRFSREEFEQILQERNELKAKVFLLKEELAYFQRELLTDHRVPGLLLEAMKVAVRKQRKKIKAKMLGTPEEAESSEDEAGPWILLSDDKGDHPPPPESKIQSFFGLWYRGKAESSEDETSSPAPSKLGGEEEAQPQSPAPDPPCSALHEHLCLGASAAPEA
modifications: GFP tag
B2: Vps41: HOPS subunit overexpressed from plasmid (GFP-tagged) (protein)
chain: MAEAEEQETESLEESTDESEEESEEEPKLKYERLSNGVTEILQKDAASCMTVHDKFLALGTHYGKVYLLDVQGNITQKFDVSPVKINQISLDESGEHMGVCSEDGKLQVFGLYSGEEFHETFDCPIKIVAVHPQFVRSSCKQFVTGGKKLLLFERTWMNRWKSSVLHEGEGNIRSVKWRGHLIAWANNMGVKIFDITSKQRITNVPRDDISLRPDMYPCSLCWKDAVTLIIGWGTSIKICSVKERHASEMRDLPSRYVEIVSQFETEFYISGLAPLCDQLVVLSYVKEVSEKTEREYCARPRLDIIQPLPETCEEISSDALTVRGFQENECRDYHLEYSEGESLFYVVSPRDVVVAKERDQDDHIDWLLEKKKYEEALMAAEISHRNIKRHKILEIGLAYVNHLVERGEYDMAARKCQKILGKNASLWEYEVYKFKEIGQLKAISPYLPRGDPVLKPLIYEMILHEFLESDYEGFATLIREWPGDLYNNSVIVQAVRDHLKKDSQNKTLLKTLAELYTYDKNYGNALEIYLTLRHKDVFQLIHKHNLFSSIKDKIVLLMDFDSEKAVDMLLDNEDKISIKKVVEELEDRPELQHVYLHKLFKRDHHKGQRYHEKQISLYAEYDRPNLLPFLRDSTHCPLEKALEICQQRNFVEETVYLLSRMGNSRSALKMIMEELHDVDKAIEFAKEQDDGELWEDLILYSIDKPPFITGLLNNIGTHVDPILLIHRIKEGMEIPNLRDSLVKILQDYNLQILLREGCKKILVADSLSLLKKMHRTQMKGVLVDEENICESCLSPILPTDAAKPFSVVVFHCRHMFHKECLPMPSLNAPAQYCNICSAKNRGPGSAILEMKK
B3: FYCO1: Rab7 effector, anterograde motor adaptor, overexpressed GFP-tagged from plasmid (protein, UniProt Q9BQS8 2-1478, looked up)
FYVE and coiled-coil …: ASTNAESQLQRIIRDLQDAVTELSKEFQEAGEPITDDSTSLHKFSYKLEYLLQFDQKEKATLLGNKKDYWDYFCACLAKVKGANDGIRFVKSISELRTSLGKGRAFIRYSLVHQRLADTLQQCFMNTKVTSDWYYARSPFLQPKLSSDIVGQLYELTEVQFDLASRGFDLDAAWPTFARRTLTTGSSAYLWKPPSRSSSMSSLVSSYLQTQEMVSNFDLNSPLNNEALEGFDEMRLELDQLEVREKQLRERMQQLDRENQELRAAVSQQGEQLQTERERGRTAAEDNVRLTCLVAELQKQWEVTQATQNTVKELQTCLQGLELGAAEKEEDYHTALRRLESMLQPLAQELEATRDSLDKKNQHLASFPGWLAMAQQKADTASDTKGRQEPIPSDAAQEMQELGEKLQALERERTKVEEVNRQQSAQLEQLVKELQLKEDARASLERLVKEMAPLQEELSGKGQEADQLWRRLQELLAHTSSWEEELAELRREKKQQQEEKELLEQEVRSLTRQLQFLETQLAQVSQHVSDLEEQKKQLIQDKDHLSQQVGMLERLAGPPGPELPVAGEKNEALVPVNSSLQEAWGKPEEEQRGLQEAQLDDTKVQEGSQEEELRQANRELEKELQNVVGRNQLLEGKLQALQADYQALQQRESAIQGSLASLEAEQASIRHLGDQMEASLLAVRKAKEAMKAQMAEKEAILQSKEGECQQLREEVEQCQQLAEARHRELRALESQCQQQTQLIEVLTAEKGQQGVGPPTDNEARELAAQLALSQAQLEVHQGEVQRLQAQVVDLQAKMRAALDDQDKVQSQLSMAEAVLREHKTLVQQLKEQNEALNRAHVQELLQCSEREGALQEERADEAQQREEELRALQEELSQAKCSSEEAQLEHAELQEQLHRANTDTAELGIQVCALTVEKERVEEALACAVQELQDAKEAASREREGLERQVAGLQQEKESLQEKLKAAKAAAGSLPGLQAQLAQAEQRAQSLQEAAHQELNTLKFQLSAEIMDYQSRLKNAGEECKSLRGQLEEQGRQLQAAEEAVEKLKATQADMGEKLSCTSNHLAECQAAMLRKDKEGAALREDLERTQKELEKATTKIQEYYNKLCQEVTNRERNDQKMLADLDDLNRTKKYLEERLIELLRDKDALWQKSDALEFQQKLSAEERWLGDTEANHCLDCKREFSWMVRRHHCRICGRIFCYYCCNNYVLSKHGGKKERCCRACFQKLSEGPGSPDSSGSGTSQGEPSPALSPASPGPQATGGQGANTDYRPPDDAVFDIITDEELCQIQESGSSLPETPTETDSLDPNAAEQDTTSTSLTPEDTEDMPVGQDSEICLLKSGELMIKVPLTVDEIASFGEGSRELFVRSSTYSLIPITVAEAGLTISWVFSSDPKSISFSVVFQEAEDTPLDQCKVLIPTTRCNSHKENIQGQLKVRTPGIYMLIFDNTFSRFVSKKVFYHLTVDRPVIYDGSDFL
modifications: GFP tag

How the values were obtained:
[1] = tested on: McA-RH7777 cells stably expressing human apoB-100 and human apoC-III (A18-C3); format: cell-based; conditions: for effect on EPA-induced lipid degradation (CLD turnover): cells silenced, transfected or pre-treated, then EPA 0.4 mM, 6 h
Procedure: (§1) In certain non-limiting examples described herein, McA-RH7777 cells stably expressing human apoB-100 and human apoC-III (designated A18-C3) were used for the studies. […] In addition, these studies, particularly those concerning EPA- or DHA-triggered lysosomal motility and CLD degradation, were also performed using primary rat hepatocytes. Transfection of plasmids encoding proteins of interest, or transfection of siRNA specific for silencing target gene expression, was achieved using the FuGENE HP Extreme reagent (Roche). Representative gene silencing siRNA sequences, which are not meant to be limiting, are described in Table 1, and plasmids encoding proteins of interest are described in Table 2. The effectiveness of siRNA silencing was verified by Western-blotting of cellular content of the target proteins, and by intracellular localization assay using siRNA-Tracker (Mirus Bioscience). Twenty-four h after plasmid transfection, or 48 h after siRNA transfection, the cells were cultured in lipid-rich media containing fetal bovine serum (20%) and OA (0.4 mM). The lipid-laden cells were switched to fresh media supplemented with OA or EPA (0.4 mM). In live imaging experiments, LipidTOX Red (Life Technologies) and LysoTracker (Life Technologies) were added to media prior to EPA treatment, to visualize lipid droplets and lysosomes, respectively. For visualizing peroxisomes, Peroxisome-GFP (Invitrogen) was introduced to the cells 24 h prior to experiments. Quantification of cell lipid contents was achieved either by direct mass measurement (HPTLC) and counting the number of lipid droplets using Image J Lipid Droplet Counter Plug-In, or indirectly by Western blot analysis of cellular content of ADRP. Secretion of apoB and TG-rich lipoprotein was determined by Western blot analysis and metabolic labeling. Mitochondrial β-oxidation was measured using MitoSOX Red (Life Technologies) in situ. Autophagic flux was determined by using Cyto-ID assay (Enzo Life Science) and by monitoring GFP-LC3 clustering in situ. Interaction of Arl8b and subunits of the HOPS complex was determined in situ by the proximity ligation assay (Olink Biosience). Cytoplasmic pH was measured using the cytosolic pHrodo indicator reagent (Invitrogen). Live imaging of fluorescent-tagged proteins was performed 1 h post-EPA treatment. Cells were also collected at the time of EPA treatment for transmission EM and tomography, as well as immuno-EM. For movies, cells were imaged at 60 sec intervals every 5 min, for a total of 30 min.
The A18-C3 cells were cultured in DMEM (Invitrogen) supplemented with fetal bovine serum (20%), penicillin (50 U/mL), streptomycin (50 μg/mL, Invitrogen) and Geneticin/G418 (500 μg/mL, Gibco) at 37° C. in 5% CO2. Transfection was conducted when cells were 60-70% confluence. Appropriate plasmids were mixed with FuGENE HP extreme reagent (Roche Diagnostic), according to manufacturer's protocol, and incubated for 30 min. Twenty-four h after transfection, cells were switched to lipid-rich media containing OA (0.4 mM) for additional 16 h prior to imaging and biochemical analysis. In silencing experiments, appropriate siRNAs were transfected into cells using the X-treme GENE siRNA regent (Roche Diagnostic). Localization of siRNA in transfected cells in situ was carried out using the Cy5 Label IT-siRNA Tracker (Minis Bioscience #7213) according to manufacturer's protocol. Forty-eight h after transfection, cells were switched to lipid-rich media containing OA (0.4 mM) for additional 16 h prior to imaging and biochemical analysis.
Quantification of lipid droplets was carried out using confocal and differential interface contrast (DIC) microscopy. Lipid droplets were stained with LipidTOX Red (Invitrogen) before adding OA or EPA. All images were visualized using a 63× oil immersion objective lens. Z-series stacks were acquired with 0.2 μm steps. […]

[2] = tested on: McA-RH7777 cells (A18-C3); assay: Live imaging of lysosomal motility and lysosome-CLD interaction (kiss-and-run); format: cell-based, rat; conditions: cells silenced, transfected or pre-treated (15 min) before EPA
Procedure: as §1
Cells were grown on 35-mm glass bottom dishes (Ibidi GmbH München, Germany) for 16 h in DMEM supplemented with FBS (20%) and OA (0.4 mM). Cells were imaged using a Zeiss 510 META laser scanning confocal microscope with a heated CO2-controlled stage (5% CO2 at 37° C.). Images were captured at a frame-rate of 30 frame/sec using a 63×. N.A.1.4 objective. Recommended laser lines and filter combinations were used for each dye. For visualization of lipid droplets, lysosomes, mitochondria, and mitochondrial β-oxidation, the respective reagents LipidTOX Red (Invitrogen), LysoTracker (Life Technology), MitoTracker (Life Technology), MitoSox Red (Invitrogen), and Peroxisome-GFP BacMam2.0 (Invitrogen) were introduced into the cells, according to manufacturers' recommendations, prior to EPA treatment.
Cells were cultured with lipid-rich media containing OA (0.4 mM) for 16 h. The lipid-laden cells were switched to fresh media containing EPA (0.4 mM) for 1 h, and the lysosomal movement towards lipid droplets was recorded by time-lapse microscopy. Fluorescent intensity of lysosomal signals at the periphery of selected individual lipid droplet was measured using Image J Live Intensity Profiler Plug-in^31-33 over a period of 40 sec. Quantification for each condition was carried out for 60 individual lipid droplets from three independent experiments. Constant threshold was applied to all of the images in each experiment.

Molecule	effect on EPA-induced lipid degradation (CLD turnover) [1]	effect on EPA-triggered lysosomal motility / lysosomal interaction with CLD [2]	effect on lipid degradation when co-expressed with Arl8b^WT, Arl8b^Q75L or Arl8b^T34N ([1]; co-transfected cells, 6 h post-OA or -EPA)
Cl.N [NH4Cl, reference compound]	inhibited		
CCC/C=C/C/C=C/C=C/C=N/NN=O [Triacsin C, reference compound]	inhibited EPA-induced lipid degradation	blocked	
COC(=O)Nc1nc2ccc(C(=O)c3cccs3)cc2[nH]1 [nocodazole, reference compound]	blocked EPA-induced lipid degradation	blocks EPA-induced lysosomal movement	
B1	adversely blocked EPA-induced lipid degradation	blocks EPA-triggered lysosomal interaction with LDs	
B2	block lipid degradation	enhanced lysosomal-CLD interaction	invariably blocks lipid degradation
B3	adversely blocked EPA-induced lipid degradation	blocks EPA-triggered lysosomal interaction with LDs	

Source: patent publication US11298402B2, “Lysosomal degradation of lipids and proteins and method of use thereof” (University of Ottawa, priority 2015, dated 2022)
